From patent US20120321697A1 (GWANGJU INSTITUTE OF SCIENCE AND TECHNOLOGY, published 2012)
No end group written: not given here. vector‑coded linker = not defined here

Tests used:
[1] = target: T1, VCAM1-Trx (human, UniProt P19320 25-698); assay: SPR (Biacore), synthetic peptide; immobilisation of VCAM1 not described
T1 construct: the form used in SPR is not described; also called Trx-VCAM1; vascular cell adhesion molecule-1; not shown: Trx (thioredoxin) fusion partner and tags of pET32a
T1 sequence (looked up): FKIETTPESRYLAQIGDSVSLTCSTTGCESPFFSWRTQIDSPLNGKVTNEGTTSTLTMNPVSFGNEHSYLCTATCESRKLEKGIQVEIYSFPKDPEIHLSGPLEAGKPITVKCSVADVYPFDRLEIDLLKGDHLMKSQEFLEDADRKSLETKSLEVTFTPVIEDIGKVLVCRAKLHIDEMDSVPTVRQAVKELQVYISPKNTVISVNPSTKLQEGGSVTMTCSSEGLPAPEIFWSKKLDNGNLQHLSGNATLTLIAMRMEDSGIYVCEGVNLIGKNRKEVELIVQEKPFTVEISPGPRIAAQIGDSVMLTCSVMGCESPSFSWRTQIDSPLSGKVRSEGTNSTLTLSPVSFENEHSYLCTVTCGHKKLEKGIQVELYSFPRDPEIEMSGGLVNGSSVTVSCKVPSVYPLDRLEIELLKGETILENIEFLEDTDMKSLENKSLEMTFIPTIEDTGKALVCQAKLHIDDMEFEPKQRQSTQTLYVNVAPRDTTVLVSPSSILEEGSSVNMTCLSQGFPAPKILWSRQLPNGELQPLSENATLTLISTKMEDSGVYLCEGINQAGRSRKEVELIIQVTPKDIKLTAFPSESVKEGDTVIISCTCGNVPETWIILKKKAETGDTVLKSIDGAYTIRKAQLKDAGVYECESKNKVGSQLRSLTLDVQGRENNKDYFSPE

[2] = target: BSA (UniProt P02769 25-607); assay: phage ELISA (anti-M13-HRP, absorbance at 450 nm), proteins coated at 5 µg/ml
Sequence of BSA (P02769 25-607 limits assumed): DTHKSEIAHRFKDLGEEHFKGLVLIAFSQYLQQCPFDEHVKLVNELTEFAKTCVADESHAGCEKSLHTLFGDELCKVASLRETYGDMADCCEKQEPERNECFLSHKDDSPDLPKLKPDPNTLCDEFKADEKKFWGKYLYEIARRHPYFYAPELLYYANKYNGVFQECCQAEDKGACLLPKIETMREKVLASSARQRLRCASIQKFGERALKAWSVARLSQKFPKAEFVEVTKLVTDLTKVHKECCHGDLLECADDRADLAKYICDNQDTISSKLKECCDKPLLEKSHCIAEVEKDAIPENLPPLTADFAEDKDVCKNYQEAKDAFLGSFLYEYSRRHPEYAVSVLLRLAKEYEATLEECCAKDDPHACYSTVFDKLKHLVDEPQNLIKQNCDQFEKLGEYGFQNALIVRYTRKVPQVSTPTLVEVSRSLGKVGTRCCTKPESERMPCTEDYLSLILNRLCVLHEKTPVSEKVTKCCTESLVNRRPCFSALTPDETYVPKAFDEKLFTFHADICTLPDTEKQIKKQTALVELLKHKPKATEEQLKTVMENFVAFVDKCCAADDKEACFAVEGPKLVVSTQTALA

[3] = target: T2, VEGF121 (human, UniProt P15692-9 27-147); assay: as above
T2 construct: Isoform VEGF121; also called vascular endothelial growth factor
T2 sequence (looked up): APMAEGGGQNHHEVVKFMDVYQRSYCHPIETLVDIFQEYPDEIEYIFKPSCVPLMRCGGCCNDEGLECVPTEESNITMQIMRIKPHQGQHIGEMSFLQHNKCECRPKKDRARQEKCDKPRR

[4] = target: T3, Fibronectin ED-B protein (recombinant, N-terminal His-tag, biotinylated where captured on streptavidin) (human, UniProt P02751 1266-1356, biotin by sulfo-NHS-SS-biotin (for biopanning, input phage ELISA and SPR on SA chip)); assay: as above
T3 construct: domain: ED-B; Expressed in E. coli BL21 from pET28b; also called fibronectin extra domain B; biotinylated-EDB; not shown: N-terminal His-tag from pET28b
T3 sequence (P02751 1266-1356): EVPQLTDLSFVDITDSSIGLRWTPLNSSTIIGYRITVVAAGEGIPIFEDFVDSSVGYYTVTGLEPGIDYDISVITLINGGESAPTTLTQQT

[5] = target: T4, TNFa; assay: as above
T4 construct: Control protein; also called TNF-α

[6] = target: T5, Trx; assay: as above
T5 construct: Control for the fusion partner; also called thioredoxin; not shown: The His-tag/S-tag linker tail of pET32a, if Trx was expressed from the empty vector

[7] = target: T1, VCAM1-Trx; assay: SPR (Biacore)
[8] = target: T3, Fibronectin ED-B protein (recombinant, …); assay: phage ELISA on 10 coated proteins, absorbance at 450 nm
Experimental: Each protein (5 μg/ml) was seeded into wells (50 μl per well) in a 96-well ELISA plate and next day, all wells were washed with 0.1% PBST (Tween-20) three times, and blocked at room temperature for 2 hrs using 2% skim milk. Then, the solution was completely removed and the plate was washed with 0.1% PBST three times. Recombinant phages containing the peptide of the present invention were thoroughly mixed with 2% BSA. Each mixture (100 μl) was divided into wells coated with 10 proteins and kept to stand at 27° C. for 2 hrs. After washing with 0.1% PBST 5 times, HRP-conjugated anti-M13 antibodies (1:1,000 dilution; GE Healthcare) were added to each well and incubated at 27° C. for 1 hr. After washing with 0.1% PBST 5 times, 100 μl TMB was divided into each well to induce colorimetric reaction, followed by stopping the reaction adding 100 μl of 1 M HCl. The absorbance was measured at 450 nm.

[9] = target: T3, Fibronectin ED-B protein (recombinant, …); assay: SPR (Biacore X), biotin-EDB on streptavidin chip
Experimental: (§1) We tested using a SPR device whether the purified GST-BPB protein can bind to fibronectin EDB. […] PBS (pH 7.4) was used as a running buffer and the flow rate was 30 μ1/min. The kinetics was measured in various concentrations and then the affinity was calculated using BIAevaluation.
The affinity of the GST-BPB to fibronectin ED-B was measured using the SPR biacore system.

[10] = target: T3, Fibronectin ED-B protein (recombinant, …); assay: SPR (Biacore X), biotin-EDB on streptavidin chip up to 2000 RU
Experimental: as §1

B1: Peptide 1 specific to VCAM1 (Table 3c) (peptide)
peptide: QARDCTGSWTWENGKWTWKGPSICPI
notes: Synthetic peptide in SPR; also called BPB
With B1 the Kd [1] was 318 nM, the binding result [2] was “no binding” and the binding result [3] was “no binding”. B1: no binding [4]; no binding [5]; no binding [6]. For the same binder, the koff [7] was 0.1 s⁻¹ and the kon [7] was 330000 M⁻¹ s⁻¹.

B2: Peptide 2 specific to fibronectin ED-B (Table 3a) (peptide)
peptide: HCSSAVGSWTWENGKWTWKGIIRLEQ
notes: Synthetic peptide in SPR; also called tryptophan zipper
With B2 the “fold absorbance against other proteins” value [8] was 30 fold.

B3: GST-BPB fusion protein for fibronectin EDB (other)
chain: {GST-vector‑coded linker}-HCSSAVGSWTWENGKWTWKGIIRLEQ
modifications: not fully specified; reading uncertain
notes: BPB insert cloned BamHI/XhoI into pGEX4T-1, expressed in E. coli BL21; The reverse primer GST-B1 may add a few residues after the BPB; not shown: glutathione S-transferase (GST) as coded by the pGEX4T-1 vector (GE Healthcare); vector-coded linker between GST and BPB
B3 showed a koff [9] of 0.00347 s⁻¹, a kon [9] of 12200 M⁻¹ s⁻¹ and a Kd [10] of 284 nM.
